Drawing on patent US9422349, this text covers cAMP production in RIN-m5F cells, EC50 and cAMP production in RIN-m5F cells, ratio vs Exendin4 (ratio vs Exendin4) for two substances.

The experiment addresses GLP-1 receptor on RIN-m5F rat insulinoma cells (rat) (UniProt P32301). Put plainly: cell-based or functional assay.
UniProt P32301, sequence (P32301 22-463): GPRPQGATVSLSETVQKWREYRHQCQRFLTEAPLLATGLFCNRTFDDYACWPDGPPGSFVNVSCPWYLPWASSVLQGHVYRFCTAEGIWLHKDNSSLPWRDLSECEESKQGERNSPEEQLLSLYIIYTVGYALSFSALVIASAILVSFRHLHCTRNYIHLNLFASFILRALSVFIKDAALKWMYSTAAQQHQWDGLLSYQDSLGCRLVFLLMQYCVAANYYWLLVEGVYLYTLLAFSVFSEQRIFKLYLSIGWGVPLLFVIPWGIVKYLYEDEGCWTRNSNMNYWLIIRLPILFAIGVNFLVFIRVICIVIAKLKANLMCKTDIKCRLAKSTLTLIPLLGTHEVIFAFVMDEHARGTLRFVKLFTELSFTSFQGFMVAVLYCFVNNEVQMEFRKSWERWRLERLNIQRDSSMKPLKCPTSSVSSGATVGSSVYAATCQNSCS

Take “desamino-histidyl-exendin-4 (from UniProt P26349 48-86) (peptide)”: the cAMP production in RIN-m5F cells, EC50 came out at 0.95 nM and the cAMP production in RIN-m5F cells, ratio vs Exendin4 (ratio vs Exendin4) is 127.
Regarding “imidazoacetyl-exendin-4 (from UniProt P26349 48-86) (peptide)”, the cAMP production in RIN-m5F cells, EC50 is 1.2 nM and the cAMP production in RIN-m5F cells, ratio vs Exendin4 (ratio vs Exendin4) worked out at 100.
